Consider 5 compounds from article PMC12584684, “A minimal SufB2C2 complex functions as a [4Fe-4S] cluster scaffold in methanogenic archaea” (Microbiology Spectrum, 2025).

One assay relates to T1, MTH SufC.
T1 construct: pET15b N-terminal His6-tag, E. coli Rosetta 2(DE3), anoxic Ni-NTA; monomer 30 kDa, dimer by SEC
Kind of assay: malachite green Pi release ATPase assay. The format is biochemical, Methanothermococcus thermolithotrophicus. Conditions: 60°C, pH 7.5, 5 mM MgCl2, 0-2 mM ATP, holo-form, anoxic. The text has this: malachite green Pi release ATPase assay on MTH SufC | kinetic parameters (Vmax, Km, kcat, and catalytic efficiency) for holo-forms of MTH SufC and SufB2C2

The subject of a further assay is T2, MTH SufB2C2.
T2 construct: gene sufC; N-terminal His6-SufC co-expressed with untagged SufB in E. coli Rosetta 2(DE3); SufB2C2 heterotetramer, ~156 kDa by SEC; with Fe-S cluster assembly protein SufB
The assay is described as follows: malachite green Pi release ATPase assay. The note with it: 60°C, pH 7.5, 5 mM MgCl2, 0-2 mM ATP, holo-form, anoxic. It counts as biochemical, Methanothermococcus thermolithotrophicus. From the text: malachite green Pi release ATPase assay on MTH SufB2C2 | kinetic parameters (Vmax, Km, kcat, and catalytic efficiency) for holo-forms of MTH SufC and SufB2C2

For the next assay, the target named is T3, MMP SufB2C2 (Methanococcus maripaludis, UniProt Q6LY25).
T3 construct: gene MMP1168; sufCB operon, N-terminal Strep-tag on SufC, expressed in M. maripaludis S0001 and purified anoxically; SufB2C2 heterotetramer; with Fe-S cluster assembly protein SufB
T3 sequence (Q6LY25 1-248): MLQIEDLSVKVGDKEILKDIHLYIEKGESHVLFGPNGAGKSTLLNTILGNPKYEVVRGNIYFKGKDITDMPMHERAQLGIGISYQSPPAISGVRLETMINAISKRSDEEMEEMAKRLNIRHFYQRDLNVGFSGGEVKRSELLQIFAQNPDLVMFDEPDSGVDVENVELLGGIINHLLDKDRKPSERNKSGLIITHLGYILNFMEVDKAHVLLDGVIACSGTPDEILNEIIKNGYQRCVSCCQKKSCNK
T3 sequence (Q6LY24 1-418 partner): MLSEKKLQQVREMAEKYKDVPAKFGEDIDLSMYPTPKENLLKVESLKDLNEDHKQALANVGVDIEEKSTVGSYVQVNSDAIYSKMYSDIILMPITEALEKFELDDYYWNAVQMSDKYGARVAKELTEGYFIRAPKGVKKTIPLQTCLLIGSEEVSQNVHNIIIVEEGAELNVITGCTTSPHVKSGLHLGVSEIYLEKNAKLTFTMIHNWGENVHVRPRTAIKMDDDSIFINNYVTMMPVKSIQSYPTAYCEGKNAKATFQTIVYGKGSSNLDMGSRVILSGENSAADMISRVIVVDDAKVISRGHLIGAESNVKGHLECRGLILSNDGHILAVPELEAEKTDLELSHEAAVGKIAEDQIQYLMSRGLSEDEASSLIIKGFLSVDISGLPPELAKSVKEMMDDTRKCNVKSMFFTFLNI
The assay is described as follows: iron quantification, UV-visible and EPR spectroscopy, as purified. It counts as binding. Conditions: anoxic purification from native host; EPR at 10 K after 5 mM dithionite.

The target in assay [1] is His6-tagged Methanothermococcus thermolithotrophicus SufB (Methanothermococcus thermolithotrophicus). The assay is described as follows: SEC; Superdex 200 10/300 GL, 50 mM sodium HEPES, 200 mM NaCl, 5 mM MgCl2, pH 7.5; samples pretreated with 10 mM EDTA and 10 mM DTH overnight; calibrated with standards of 29-700 kDa; fractions on SDS-PAGE.
The target in assay [2] is His6-tagged Methanothermococcus thermolithotrophicus SufC (Methanothermococcus thermolithotrophicus). The assay is described as above.
The target is the same in assay [3].
For assay [4] the target is unchanged. The source holds these as a separate data set.

`Nc1ncnc2c1ncn2[C@@H]1O[C@H](COP(=O)(O)OP(=O)(O)OP(=O)(O)O)[C@@H](O)[C@H]1O` [ATP]: the Km in the assay with MTH SufC stood at 1.9 ± 0.8 mM; with MTH SufB2C2, 2.6 ± 0.7 mM.

On to `[S]12[Fe]3[S]4[Fe]1[S]1[Fe]2[S]3[Fe]41` [[4Fe-4S] cluster], for which, at MMP SufB2C2, the “Fe atoms per protomer” value was found to be 1.6 ± 0.3 Fe per protomer.

“His6-tagged Methanothermococcus thermolithotrophicus SufB (natural protein)”: in assay [1], the stoichiometry N is 2.

Consider “His6-tagged Methanothermococcus thermolithotrophicus SufC (natural protein)”, for which, in assay [2], the stoichiometry N stood at 2.

In assay [3], “untagged Methanothermococcus thermolithotrophicus SufB (natural protein)” yielded an ATPase activity (malachite green) of the MTH SufB2C2 complex against MTH SufC alone at 60°C of 7 fold. This compound displayed an activation of apo-AcnB (Fe-S cluster transfer, aconitase activity) by the MTH SufB2C2 complex against MTH SufC alone in assay [4] of 2 fold.
